Data as given in patent US20220380446A1 (ABL BIO, published 2022).

Columns and labels:
[1] = target: T1, human α-synuclein pre-formed fibrils (Human Alpha Synuclein Pre-formed Fibrils Type II, StressMarq SPR-317) (human, UniProt P37840 1-140); test: SPR Biacore T200, antibody captured on Protein A chip, α-syn PFF analyte, 1:1 model
Procedure: (§1) The equipment used was Biacore® (GE Healthcare, Model T200). Protein A (GE Healthcare, Cat: 29-1275-56) was used as a chip, 10 mM glycine-HCl pH 1.5 (GE Healthcare, Cat: BR-1003-54) was used as a regeneration buffer, and HBS-EP was used as a running buffer and an analyte dilution and sample dilution buffer. […] A capture phase was carried out at a contact time of 60 seconds and a flow rate of 30 μL/min was used for a stabilization period of 60 seconds, with the target resonance units (RU) of fibril set to 10 (theoretical). In an association phase, the association time was set to 60 seconds and a flow rate was set to 60 μL/min. In a dissociation phase, the dissociation time was set to 180 seconds, and a flow rate was set to 60 μL/min. In a regeneration phase, the flow rate was set to 30 μL/min, and the regeneration time was set to 60 seconds. A 1:1 binding model was used for fitting, and the Biacore® T200 Evaluation software (GE Healthcare) was used for the evaluation.

[2] = target: monomeric human α-synuclein (Active Human Recombinant Alpha Synuclein Protein Monomer type II, StressMarq … (human, UniProt P37840 1-140)); test: SPR (Biacore T200), antibody captured on Protein A chip, α-syn monomer as analyte (Monomer-4), 25 °C; Run02; number of the software's 1:1 fit printed under a sensorgram without binding response (the filing's Table 18: No-binding)
Procedure: The equipment used was Biacore® T200. The anti-α-syn monospecific antibody or the anti-α-syn/IGF1R bispecific antibody was diluted with 1×HBS-EPT. […] Each diluted monomer sample was injected at 60 μL/min onto the Protein A chip surface for 60 seconds, followed by washing with 1×HBS-EP buffer. The dissociation rate was evaluated for 180 seconds. All procedures in association/dissociation phases were done in single cycle kinetics. The chip surface was regenerated by injecting 10 mM glycine-HCl pH 1.5 (GE Healthcare) onto the chip surface for 60 seconds at 30 μL/min, removing residual α-syn monomer/antibody complex. A 1:1 binding model was used for fitting, and the Biacore® T200 Evaluation software was used for evaluation.

[3] = target: T1, human α-synuclein pre-formed fibrils …; test: SPR Biacore T200, antibody captured on Protein A chip, α-syn PFF analyte, 1:1 model; remark: listed apart in the source
Procedure: as §1

[4] = target: T1, human α-synuclein pre-formed fibrils …; test: SPR (Biacore), file name 'Main-ProA', α-syn PFF as analyte (sample PFF-4), single-cycle kinetics, 1:1 Binding fit, 25 °C; Run02
[5] = target: T1, human α-synuclein pre-formed fibrils …; test: SPR Biacore 'as described above', antibody captured, α-syn PFF analyte, 1:1 model
[6] = target: T1, human α-synuclein pre-formed fibrils …; test: SPR (Biacore), antibody captured on anti-hFab CM3 chip, α-syn PFF as analyte (sample PFF-1), single-cycle kinetics, 1:1 Binding fit, 25 °C; Run1
Procedure: The equipment used was Biacore®. Anti-hFab (Sigma, I5260-1ML) diluted in acetate buffer (pH 5.0) was immobilized on the surface of an CM3 chip (GE Healthcare) by amine coupling. […] All procedures in association and dissociation phases were done in single-cycle kinetics. A 1:1 binding model was used for fitting, and the Biacore® T200 Evaluation software was used for the evaluation.

[7] = target: T1, human α-synuclein pre-formed fibrils …; test: SPR (Biacore), file name 'Main-ProA', α-syn PFF as analyte (sample PFF-1), single-cycle kinetics, 1:1 Binding fit, 25 °C; Run01

B1: hu1E4(V1_VL1) x Grabody B (bispecific antibody, human IgG1, kappa)
heavy 1: not shown
heavy 2: not shown
light: DIVMTQTPLSLSVTPGQPASISCRSSQSLVHSNGNTYLHWYLQKPGQSPQLLIYKVSNRFSGVPDRFSGSGSGTDFTLKISRVEAEDVGVYYCSQSTHVPRTFGQGTKLEIKRTVAAPSVFIFPPSDEQLKSGTASVVCLLNNFYPREAKVQWKVDNALQSGNSQESVTEQDSKDSTYSLSSTLTLSKADYEKHKVYACEVTHQGLSSPVTKSFNRGEC
notes: Anti-α-syn/IGF1R bispecific; hole heavy chain (M428L) carries the anti-IGF1R scFv Grabody B at its C-terminus through a (G4S)3 linker; knob heavy chain (M428L) without scFv; also called hu1E4(V1 VL1) × Grabody B; 1E4(Ver.1_VL1) × Grabody B
- Kd [1]: 28.1 pM
- koff [1]: 0.000322 s⁻¹
- kon [1]: 1.14e+07 M⁻¹ s⁻¹
- koff [2]: 0.537 s⁻¹
- kon [2]: 46900 M⁻¹ s⁻¹
- Kd [3]: 29.3 pM
- koff [3]: 0.000423 s⁻¹
- kon [3]: 1.45e+07 M⁻¹ s⁻¹
- koff [4]: 0.000219 s⁻¹
- kon [4]: 1.44e+07 M⁻¹ s⁻¹
- Kd [5]: 25.1 pM
- koff [5]: 0.000345 s⁻¹
- kon [5]: 1.4e+07 M⁻¹ s⁻¹
- koff [6]: 0.00067 s⁻¹
- kon [6]: 1.91e+07 M⁻¹ s⁻¹
- koff [7]: 0.000472 s⁻¹
- kon [7]: 1.35e+07 M⁻¹ s⁻¹
